Experimental data as given in patent US20120058906A1 (published 2012).

Columns and labels:
[1] = target: T1, rHuman EGF R/Fc Chimera, CF (R&D Systems Cat#344-ER) (human, UniProt P00533 25-645); test: ECL (MSD multi-spot) titration, Fab at 0.2975 uM; blank spot 5019;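 note: blank spot per well as comparator with Hit at signal to blank ratio of 4 or more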
T1 construct: Bought protein; also called epidermal growth factor receptor; not shown: Fc of the bought chimera

[2] = target: T2, Recombinant Human DLL4 (R&D Systems Cat#1506-D4/CF) (human, UniProt Q9NR61 27-524); test: as above
T2 construct: Bought protein; also called delta-like protein 4

[3] = target: T3, rHuman Erythropoietin R/Fc Chimera, CF (R&D Systems Cat#963-ER) (human, UniProt P19235 25-250); test: as above
T3 construct: Bought protein; also called EPO R/Fc; EPOR; not shown: Fc of the bought chimera
T3 sequence: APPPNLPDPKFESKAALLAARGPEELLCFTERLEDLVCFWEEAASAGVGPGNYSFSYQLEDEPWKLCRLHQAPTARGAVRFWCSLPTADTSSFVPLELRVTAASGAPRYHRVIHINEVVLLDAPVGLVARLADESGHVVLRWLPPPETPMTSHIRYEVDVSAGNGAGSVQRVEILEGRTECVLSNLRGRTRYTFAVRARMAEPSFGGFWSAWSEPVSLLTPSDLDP

[4] = target: T4, rHuman P-Cadherin/Fc Chimera, CF (R&D Systems Cat#861-PC) (human, UniProt P22223 108-654); test: as above
T4 construct: Bought protein; not shown: Fc of the bought chimera

[5] = target: T5, rHuman Notch-1/Fc Chimera, CF (R&D Systems Cat#3647-TK) (human, UniProt P46531 19-526); test: as above
T5 construct: Bought protein; not shown: Fc of the bought chimera

[6] = target: T6, rHuman IGF-1 sR, CF (R&D Systems Cat#391-GR) (human, UniProt P08069 31-932); test: as above
T6 construct: Bought soluble receptor; also called insulin-like growth factor-1 soluble receptor; IGF-R1

[7] = target: T1, rHuman EGF R/Fc Chimera, CF (R&D …); test: ECL (MSD multi-spot) titration, Fab at 0.01859 uM; blank spot 1776;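 note: blank spot per well as comparator with Hit at signal to blank ratio of 4 or more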
[8] = target: T2, Recombinant Human DLL4 (R&D Systems …); test: as above
[9] = target: T3, rHuman Erythropoietin R/Fc Chimera, CF …; test: as above
[10] = target: T4, rHuman P-Cadherin/Fc Chimera, CF (R&D …); test: as above
[11] = target: T5, rHuman Notch-1/Fc Chimera, CF (R&D …); test: as above
[12] = target: T6, rHuman IGF-1 sR, CF (R&D Systems …); test: as above
[13] = target: T1, rHuman EGF R/Fc Chimera, CF (R&D …); test: ECL (MSD multi-spot) titration, Fab at 0.07438 uM; blank spot 2504;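 note: blank spot per well as comparator with Hit at signal to blank ratio of 4 or more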
[14] = target: T2, Recombinant Human DLL4 (R&D Systems …); test: as above
[15] = target: T3, rHuman Erythropoietin R/Fc Chimera, CF …; test: as above
[16] = target: T4, rHuman P-Cadherin/Fc Chimera, CF (R&D …); test: as above
[17] = target: T5, rHuman Notch-1/Fc Chimera, CF (R&D …); test: as above
[18] = target: T6, rHuman IGF-1 sR, CF (R&D Systems …); test: as above
[19] = target: T1, rHuman EGF R/Fc Chimera, CF (R&D …); test: ECL (MSD multi-spot) titration, Fab at 1.19 uM; blank spot 24999;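 note: blank spot per well as comparator with Hit at signal to blank ratio of 4 or more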
[20] = target: T2, Recombinant Human DLL4 (R&D Systems …); test: as above
[21] = target: T3, rHuman Erythropoietin R/Fc Chimera, CF …; test: as above
[22] = target: T4, rHuman P-Cadherin/Fc Chimera, CF (R&D …); test: as above
[23] = target: T5, rHuman Notch-1/Fc Chimera, CF (R&D …); test: as above
[24] = target: T6, rHuman IGF-1 sR, CF (R&D Systems …); test: as above
[25] = target: T7, Recombinant Human DLL4 (R&D Systems, Cat#1506-D4/CF) (human, UniProt Q9NR61 27-529); test: ECL (MSD) Fab titration; binding affinity estimated from the 50% binding signal
T7 construct: Bought protein; also called rHuman DLL4; delta-like protein 4

B1: Fab VH1-46_IGHD6-13*01_IGHJ4*01 & L2_IGKJ1*01 (Fab, V domains shown)
VH: QVQLVQSGAEVKKPGASVKVSCKASGYTFTSYYMHWVRQAPGQGLEWMGIINPSGGSTSYAQKFQGRVTMTRDTSTSTVYMELSSLRSEDTAVYYCAREGYSSSWYDYFDYWGQGTLVTVSS
VL: not shown
notes: also called Fab No. 7
B1 showed an ECL signal [1] of 42200, an ECL signal [2] of 34700 and an ECL signal [3] of 167000. For the same binder, the ECL signal [4] was 26000, the ECL signal [5] was 37500 and the ECL signal [6] was 17400. It also gave an ECL signal [7] of 11800, an ECL signal [8] of 18900 and an ECL signal [9] of 188000. It also gave an ECL signal [10] of 11700, an ECL signal [11] of 17600 and an ECL signal [12] of 3780. For the same binder, the ECL signal [13] was 16600, the ECL signal [14] was 20700 and the ECL signal [15] was 154000. For the same binder, the ECL signal [16] was 14800, the ECL signal [17] was 22000 and the ECL signal [18] was 5800. It also gave an ECL signal [19] of 62500, an ECL signal [20] of 74900 and an ECL signal [21] of 193000. The ECL signal [22] was 69700, the ECL signal [23] was 72000 and the ECL signal [24] was 35200.

B2: Fab VH1-46_IGHD6-6*01_IGHJ1*01 & L6_IGKJ1*01 (Fab, V domains shown)
VH: QVQLVQSGAEVKKPGASVKVSCKASGYTFTSYYMHWVRQAPGQGLEWMGIINPSGGSTSYAQKFQGRVTMTRDTSTSTVYMELSSLRSEDTAVYYCAREEYSSSSAEYFQHWGQGTLVTVSS
VL: not shown
notes: Fab from E. coli; VH joined to CH1 with Flag and His tags (Plasmid A), VL to kappa CL (Plasmid C)
Binder B2 has a Kd [25] of at most 10 nM.
